Test results as given in FireProtDB (doi:10.1038/12277).

B1: Ribonuclease HI, P0A7Y4 (parent)
chain: MLKQVEIFTDGSCLGNPGPGGYGAILRYRGREKTFSAGYTRTTNNRMELMAAIVALEALKEHCEVILSTDSQYVRQGITQWIHNWKKRGWKTADKKPVKNVDLWQRLDAALGQHQIKWEWVKGHAGHPENERCDELARAAAMNPTLEDTGYQVEV

Variants of: B1
Settings: Escherichia coli (strain K12), pH 5.5, CD, Potassium phosphate 2 mM, KF 5 mM, reversible: yes, structure 2RN2, whole UniProt chain shown; for Tm / change of melting temperature, mutant - wild type (higher = more stable): Thermal; for ddG of mutation (higher = less stable) / denaturant m value / unfolding free energy: 25 °C, Urea

Row | Variant | Tm [°C] | change of melting temperature, mutant - wild type (higher = more stable) [°C] | ddG of mutation (higher = less stable) [kcal/mol] | denaturant m value [kcal/mol/M] | unfolding free energy [kcal/mol]
1 | I53A | 35.7 | -12.1 |  |  | 
2 | D10A | 62.6 | 14.8 | -3.3 | 2.1 | 13
3 | R27A | 42.2 | -5.6 | 2.2 | 2 | 7.5
4 | Q105G | 38.2 | -9.6 | 2.2 | 2.1 | 7.5
